The results in this text go back to article PMC4182932 (Current protocols in protein science / editorial board, …, 2014).

The series concerns the molecule itself. The series is described as follows: AUC.

B1: βB1-crystallin (natural protein, human, UniProt P53674 1-252, looked up)
chain: MSQAAKASASATVAVNPGPDTKGKGAPPAGTSPSPGTTLAPTTVPITSAKAAELPPGNYRLVVFELENFQGRRAEFSGECSNLADRGFDRVRSIIVSAGPWVAFEQSNFRGEMFILEKGEYPRWNTWSSSYRSDRLMSFRPIKMDAQEHKISLFEGANFKGNTIEIQGDDAPSLWVYGFSDRVGSVKVSSGTWVGYQYPGYRGYQYLLEPGDFRHWNEWGAFQPQMQSLRRLRDKQWHLEGSFPVLATEPPK
In the case of B1, the “stoichiometry N” value was determined as 2.
